Measurements: article PMC10397247

Experiments:
Experiment in all cases: two-hybrid library CCNG1;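 note: natural log of median RNA to DNA barcode read ratio; higher means stronger binding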
[1] = target: T1, P7bHq
T1 chain: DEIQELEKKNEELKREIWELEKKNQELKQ

[2] = target: T2, P8bHq
T2 chain: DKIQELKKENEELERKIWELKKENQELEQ

[3] = target: T3, P9bHq
T3 chain: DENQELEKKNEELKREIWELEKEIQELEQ

[4] = target: T4, P7A-bH
T4 chain: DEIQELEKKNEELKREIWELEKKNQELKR

[5] = target: T5, P8A-bH
T5 chain: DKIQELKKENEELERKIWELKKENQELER

[6] = target: T6, P9A-bH
T6 chain: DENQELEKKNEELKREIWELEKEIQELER

[7] = target: T7, O3-bN
T7 chain: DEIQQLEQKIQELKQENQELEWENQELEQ

[8] = target: T8, O4-bN
T8 chain: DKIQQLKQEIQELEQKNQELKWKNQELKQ

[9] = target: T9, O5-bN
T9 chain: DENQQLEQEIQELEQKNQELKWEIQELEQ

[10] = target: T10, O6-bN
T10 chain: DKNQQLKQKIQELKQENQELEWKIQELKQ

[11] = target: T11, O7-bN
T11 chain: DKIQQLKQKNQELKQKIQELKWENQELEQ

[12] = target: T12, O8-bN
T12 chain: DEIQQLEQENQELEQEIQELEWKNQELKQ

[13] = target: T13, O9-bN
T13 chain: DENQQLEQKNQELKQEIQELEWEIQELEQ

[14] = target: T14, O16-bN
T14 chain: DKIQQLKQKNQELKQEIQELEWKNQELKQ

[15] = target: T15, O2-bN
T15 chain: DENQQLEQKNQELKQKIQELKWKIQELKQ

DEIQELEKKNEELKREIWELEKKNQELKQ [P7bHq]
interaction score [1]: -1.98 | interaction score [2]: 2.08 | interaction score [3]: 0.211

DEIQELEKKNEELKREIWELEKKNQELKR [P7A-bH]
interaction score [4]: -0.0377 | interaction score [5]: 1.64 | interaction score [6]: -0.442

DEIQQLEQKIQELKQENQELEWENQELEQ [O3-bN]
interaction score [7]: -0.142 | interaction score [8]: 2.41 | interaction score [9]: -0.619 | interaction score [10]: -0.337 | interaction score [11]: -1.23 | interaction score [12]: -0.285 | interaction score [13]: -0.842

DKIQQLKQKNQELKQEIQELEWKNQELKQ [O16-bN]
interaction score [14]: 0.145 | interaction score [15]: -0.944 | interaction score [7]: -0.113 | interaction score [8]: -0.0984 | interaction score [9]: -2.84 | interaction score [10]: 0.821 | interaction score [11]: -0.333 | interaction score [12]: 0.95 | interaction score [13]: -0.976
